{"source": "patent US20260232830A1", "about": "(JIANGSU HENGRUI PHARMACEUTICALS, published 2026)", "binders": {"B1": {"name": "ChiF4-18 (antibody, human IgG1, kappa, V domains shown)", "VH": "EVQLQQSGAELVRPGSSVKMSCKTSGYTFTSYGINWVKQRPGQGLEWIGYIYLGSDYTEYNEKFKGKATLTSDTTSSTAYMQLSSLTSEDSAIYFCARSAGSLFAYWGQGTLVTVSA", "VL": "DIQLTQSPSSLSASLGERVSLTCRASQDIGITLNWLQQEPDGTIKRLIYATSSLDSGVPKRFSGSRSGSDYSLTISSLESEDFVDYYCLQYASSPYTFGGGTKLEIKR", "notes": "murine variable regions on human IgG1 constant regions; also called chimeric antibody of F4-18"}, "B2": {"name": "M6-H2L2 (antibody, human IgG1, kappa, V domains shown)", "VH": "EVQLVQSGAEVKKPGASVKVSCKASGYRFIPYWIEWVRQAPGQGLEWMGEILPGTGRTNYNEKFKGRVTFTADTSTNTVYMELSSLRSEDTAVYYCARYGDDTSGGYYAVDYWGQGTTVTVSS", "VL": "EIVLTQSPATLSLSPGERATLSCRASESVNILGTNLIHWYQQKPGQAPKLLIYHASNLETGIPARFSGSGSRTDFTLTISSLEPEDFAVYYCLQSRKIPWTFGGGTKVEIKR", "notes": "humanized, human IgG1"}, "B3": {"name": "M6-H5L3 (antibody, human IgG1, kappa, V domains shown)", "VH": "B2 VH with Q39E, A40R, Q43H, R87T, D101E", "VL": "B2 VL with E1D, L4M, F87V", "notes": "humanized, human IgG1"}, "B4": {"name": "M6-H7L2 (antibody, human IgG1, kappa, V domains shown)", "VH": "B2 VH with Q39E, A40R, Q43H, R87T, S88N, D101E", "VL": "B2 VL", "notes": "humanized, human IgG1"}, "B5": {"name": "M6-H7L3 (antibody, human IgG1, kappa, V domains shown)", "VH": "B2 VH with Q39E, A40R, Q43H, R87T, S88N, D101E", "VL": "B2 VL with E1D, L4M, F87V", "notes": "humanized, human IgG1"}, "B6": {"name": "ChiF4-1 (antibody, human IgG1, kappa, V domains shown)", "VH": "QIQLQQSGPELVKPGASVKISCKASGYTFTDNYINWVKQRPGQGLEYIGWIYPGSGNNKFNEKFKGKATLTVDTSSRTAFMQLSSLTFEDSAVYFCARDYPFPSYHYGMDYWGQGTSVTVSS", "VL": "QILLTQSPAIMSASPGERVTITCSASSSVSYIHWFQQKPGTSPKLWIYSTSNLASGVPPRFSGSGSGTSFSLTVSRMEAEDAATYYCQQRSSYPPTFGGGTKLEIKR", "notes": "murine variable regions on human IgG1 constant regions; also called chimeric antibody of F4-1"}, "B7": {"name": "F4-1-H1L2 (antibody, human IgG1, kappa, V domains shown)", "VH": "EVQLVQSGAEVKKPGASVKVSCKASGYTFTDNYINWVRQAPGQRLEYMGWIYPGSGNNKFNEKFKGRVTITVDTSASTAYMELSSLRSEDTAVYYCARDYPFPSYHYGMDYWGQGTTVTVSS", "VL": "DIQLTQSPSSLSASVGDRVTITCSASSSVSYIHWFQQKPGKAPKLWIYSTSNLASGVPSRFSGSGSGTDFTLTVSSLQPEDFATYYCQQRSSYPPTFGGGTKVEIKR", "notes": "humanized, human IgG1"}, "B8": {"name": "ChiM4 (antibody, human IgG1, kappa, V domains shown)", "VH": "QVQLQQSGAELARPGASVKLSCKASGYSFTTYGVPWVKQRTGQGLEWIGDIYPRSGNTYYNEKFKGKATLTADKSSDTVFMELRSLSSEDSAVYFCAREDYDNYPYALDYWGQGTSVTVSS", "VL": "EIVLTQSPAIIAASPGEKVTITCSASSSVFNMNWYQQKPGSSPKIWIYDISKLASGVPGRFSGSGSGTSFSLTINSMEAEDVGTYYCQQRSFYPPTFGGGTKVEIKR", "notes": "murine variable regions on human IgG1 constant regions; also called chimeric antibody of M4"}, "B9": {"name": "F4-1-H2L3 (antibody, human IgG1, kappa, V domains shown)", "VH": "B7 VH with M48I, I70L, S77R", "VL": "B7 VL with K41T, A42S", "notes": "humanized, human IgG1"}, "B10": {"name": "F4-18-H2L3 (antibody, human IgG1, kappa, V domains shown)", "VH": "EVQLVQSGAEVKKPGASVKVSCKASGYTFTSYGINWVRQRPGQGLEWIGYIYLGSDYTEYNEKFKGRVTLTSDTSASTAYMELSSLRSEDTAVYYCARSAGSLFAYWGQGTLVTVSS", "VL": "DIQLTQSPSSLSASVGDRVTITCRASQDIGITLNWLQQKPGKAIKRLIYATSSLDSGVPSRFSGSRSGSDYTLTISSLQPEDFATYYCLQYASSPYTFGGGTKVEIKR", "notes": "humanized, human IgG1"}, "B11": {"name": "F4-18-H3L4 (antibody, human IgG1, kappa, V domains shown)", "VH": "B10 VH with K12V, V20M, A24T", "VL": "B10 VL with K39E, K42G, S60K", "notes": "humanized, human IgG1"}, "B12": {"name": "M4-H1L2 (antibody, human IgG1, kappa)", "heavy": "not shown", "light": "DIVMTQSPSSLSASVGDRVTITCSASSSVFNMNWYQQKPGKSPKLWIYDISKLASGVPSRFSGSGSGTDFTLTISSLQPEDFATYYCQQRSFYPPTFGGGTKVEIKRTVAAPSVFIFPPSDEQLKSGTASVVCLLNNFYPREAKVQWKVDNALQSGNSQESVTEQDSKDSTYSLSSTLTLSKADYEKHKVYACEVTHQGLSSPVTKSFNRGEC", "notes": "humanized, human IgG1"}, "B13": {"name": "M4-H1L1 (antibody, human IgG1, kappa)", "heavy": "not shown", "light": "B12 light with V3Q", "notes": "humanized, human IgG1"}, "B14": {"name": "M4H1L1-9-A (antibody, human IgG1, kappa)", "heavy": "not shown", "light": "B12 light with V3Q", "modifications": "compound 9-A coupled to reduced cysteines of the antibody (chains and sites not stated), average n=6.6", "notes": "also called MUC1 monoclonal antibody ADC"}}, "key": {"[1]": {"target": "T1, human MUC1-C on stably transfected cells (human, UniProt P15941 961-1255, limits assumed)", "T1 construct": "domain: MUC1-C; the cell line of each value is named under assay; also called HCC827-human-MUC1-C cells; CHOK1-human-MUC1-C cells", "test": "FACS, HCC827-human-MUC1-C"}, "[2]": {"target": "T1, human MUC1-C on stably transfected cells", "test": "FACS, HCC827-human-MUC1-C, Test 2"}, "[3]": {"target": "T1, human MUC1-C on stably transfected cells", "test": "FACS, CHOK1-human-MUC1-C"}, "[4]": {"target": "T1, human MUC1-C on stably transfected cells", "test": "FACS, CHOK1-human-MUC1-C", "remark": "listed apart in the source"}, "[5]": {"target": "T1, human MUC1-C on stably transfected cells", "test": "FACS, HCC827-human-MUC1-C, Test 1"}, "[6]": {"target": "T2, human MUC1 as expressed on tumour cell lines (T47D, HCC827, HPAC) (human, UniProt P15941 24-1255)", "T2 construct": "whole, on cells; the cell line is named under assay; also called T47D cells; HCC827 cells", "test": "FACS, HCC827"}, "[7]": {"target": "T1, human MUC1-C on stably transfected cells", "test": "FACS, HCC827-human-MUC1-C, Test 2", "remark": "listed apart in the source"}, "[8]": {"target": "T2, human MUC1 as expressed on tumour cell …", "test": "FACS, T47D"}, "[9]": {"target": "T2, human MUC1 as expressed on tumour cell …", "test": "FACS, HPAC"}}, "note": "Numbering of substitutions follows the chain as printed.", "data": [{"binder": "B1", "values": [{"measurement": "Emax", "setting": "[1]", "result": 20900}]}, {"binder": "B2", "values": [{"measurement": "Emax", "setting": "[2]", "result": 92700}]}, {"binder": "B3", "values": [{"measurement": "Emax", "setting": "[2]", "result": 73000}]}, {"binder": "B4", "values": [{"measurement": "Emax", "setting": "[2]", "result": 78400}]}, {"binder": "B5", "values": [{"measurement": "Emax", "setting": "[2]", "result": 48900}]}, {"binder": "B6", "values": [{"measurement": "Emax", "setting": "[1]", "result": 21500}]}, {"binder": "B7", "values": [{"measurement": "Emax", "setting": "[3]", "result": 102000}]}, {"binder": "B8", "values": [{"measurement": "Emax", "setting": "[1]", "result": 13200}]}, {"binder": "B9", "values": [{"measurement": "Emax", "setting": "[3]", "result": 122000}]}, {"binder": "B10", "values": [{"measurement": "Emax", "setting": "[4]", "result": 80400}]}, {"binder": "B11", "values": [{"measurement": "Emax", "setting": "[4]", "result": 73400}]}, {"binder": "B12", "values": [{"measurement": "Emax", "setting": "[5]", "result": 74400}]}, {"binder": "B13", "values": [{"measurement": "Emax", "setting": "[6]", "result": 3630}, {"measurement": "EC50", "setting": "[7]", "result": 5, "unit": "nM"}, {"measurement": "Emax", "setting": "[7]", "result": 42300}, {"measurement": "Emax", "setting": "[8]", "result": 5250}, {"measurement": "Emax", "setting": "[9]", "result": 22400}]}, {"binder": "B14", "values": [{"measurement": "Emax", "setting": "[6]", "result": 3690}, {"measurement": "Emax", "setting": "[9]", "result": 29200}]}]}
